According to patent publication US12173330B2, “Method for producing hydroxy-L-pipecolic acid” (API CORPORATION, priority 2015, dated 2024):

Experiments:
[1] = Catalytic efficiency (kcat/Km) of L-pipecolic acid hydroxylases with L-proline (Example 3); format: biochemical; details: for hydroxy-L-proline detected from the reaction solution: L-proline as substrate, Example 3, in words; for Activity, Substrate: L-proline (cell spanning Km to kcat/Km): in words
Protocol: Each of the obtained recombinant E. coli strains in a volume of 0.6 mL was recovered by centrifugation and was suspended in 0.5 mL of 50 mmol/L MES (2-morpholinoethanesulfonic acid) buffer at pH 6. The container containing the suspension was placed in ice-water bath to perform sonication and then spun at 12,000 rpm. The obtained supernatant was used as an enzyme solution in Example 3.
Subsequently, 0.05 mL of 1 mol/L hydrochloric acid was added to stop the reaction.
The reaction using L-proline as a substrate was carried out under the same conditions as in the above reaction using L-pipecolic acid.
Then, each reaction solution was treated using 1-fluoro-2,4-dinitrophenyl-5-L-alaninamide (FDAA) (manufactured by Tokyo Chemical Industry Co., Ltd.) according to a method as described below, to obtain a FDAA-derivative of a hydroxy-L-pipecolic acid or hydroxy-L-proline included in each reaction solution.
To the reaction solution after stopping the reaction, 0.05 mL of 1 mol/L sodium hydroxide was added for neutralization. After centrifuging the solution at 12,000 rpm, 15 μL of 0.5 mol/L borate buffer (pH 9) was added to 15 μL of the obtained supernatant, followed by further addition of 30 μL of 20 mmol/L FDAA solution in acetone and incubation at 40° C. for one hour. Subsequently, 10 μL of 1 mol/L hydrochloric acid was added to stop the derivatization reaction. The resulting solution was diluted by adding 80 μL of methanol, and then centrifuged at 12,000 rpm. The obtained supernatant was used as a FDAA derivative solution.
The amount of produced hydroxy-L-pipecolic acid or hydroxy-L-proline was analyzed with UPLC-MS (manufactured by Waters Co.).
An aliquot containing 5 μg of total protein was taken from each enzyme solution obtained in Example 2, loaded on each lane, and then electrophoresed on polyacrylamide gel. The obtained electrophoretogram was analyzed using the image analysis software Image Lab3.0 (manufactured by Bio-Rad Laboratories, Inc.) to determine the content of each hydroxylase. A carbonic anhydrase (manufactured by Sigma-Aldrich Co. LLC) was used as a quantification reference. The content of a hydroxylase of interest was calculated from the signal intensity of the enzyme of interest, based on the signal intensities of bands corresponding to 200 ng, 400 ng and 600 ng of the quantification reference provided for the electrophoresis.
The catalytic efficiency of each enzyme was calculated based on the Michaelis-Menten kinetic equation.
It is known that, in FIG. 1, the reciprocal of each intercept with the x-axis, multiplied with −1, represents a km value (mmol/L) and the reciprocal of each intercept with the y-axis represents a Vmax value (U/mg), the maximum rate of reaction.
The catalytic ability per molecule of the enzyme (kcat) can be calculated from the Vmax and the molecular weight of the enzyme. Table 5 indicates the result of the calculation of catalytic efficiency (kcat/km), which is an index representing the catalytic ability of an enzyme, based on the obtained kcat and km values.

[2] = Production of hydroxy-L-pipecolic acids by culture of recombinant E. coli expressing the hydroxylase (Example 5); format: cell-based, E. coli BL21 (DE3); details: for Accumulation of (4S)-hydroxy-L-proline: 120 hours; for Accumulation amount of (4S)-hydroxy-L-proline / Accumulation amount of (5S)-Hydroxy-L-pipecolic acid / Accumulation amount of L-pipecolic acid / Accumulation amount of (4R)-hydroxy-L-proline / Accumulation amount of (4S)-hydroxy-L-pipecolic acid: 20 mmol/L L-pipecolic acid in medium, 30° C.; for Accumulation of (4R)-hydroxy-L-proline: 64 hours; for Conversion of the substrate to (4S)-hydroxy-L-pipecolic acid: incubation for 64 hours
[3] = Reactivity comparison of L-pipecolic acid 5-hydroxylases, substrate L-proline (Example 4); details: for Relative activity, Substrate: L-proline (hydroxy-L-proline-producing activity, 100 = hydroxy-L-pipecolic acid-producing activity): 10 mmol/L substrate, 30° C., 30 minutes; for hydroxy-L-proline detected from the reaction solution: Example 4, 10 mmol/L L-proline, in words
Protocol: (§1) The detection of the products was based on the absorbance at a wavelength of 340 nm.
(§2) The activity values were evaluated by the amount of a product per gram of total protein (U/g-protein).

[4] = Reactivity comparison of L-pipecolic acid 5-hydroxylases, substrate L-pipecolic acid (Example 4); details: 10 mmol/L substrate, 30° C., 30 minutes; hydroxy-L-pipecolic acid-producing activity set to 100
Protocol: as §1, §2

Row | Molecule | hydroxy-L-proline detected from the reaction solution [1] | Accumulation of (4S)-hydroxy-L-proline ([2]; in words) | Accumulation amount of (4S)-hydroxy-L-proline ([2]; after 120 hours) [mmol/L] | Accumulation amount of (5S)-Hydroxy-L-pipecolic acid ([2]; after 120 hours) [mmol/L] | Accumulation amount of L-pipecolic acid ([2]; after 120 hours) [mmol/L] | Conversion of the substrate to (5S)-hydroxy-L-pipecolic acid ([2]; incubation for 120 hours, in words) | Relative activity, Substrate: L-proline (hydroxy-L-proline-producing activity, 100 = hydroxy-L-pipecolic acid-producing activity) [3] [%] | hydroxy-L-proline detected from the reaction solution [3] | Relative activity, Substrate: L-pipecolic acid [4] [%] | Activity, Substrate: L-proline (cell spanning Km to kcat/Km) [1] | Accumulation of (4R)-hydroxy-L-proline ([2]; in words) | Accumulation amount of (4R)-hydroxy-L-proline ([2]; after 64 hours) [mmol/L] | Accumulation amount of (4S)-hydroxy-L-pipecolic acid ([2]; after 64 hours) [mmol/L] | Accumulation amount of L-pipecolic acid ([2]; after 64 hours) [mmol/L] | Conversion of the substrate to (4S)-hydroxy-L-pipecolic acid ([2]; in words)
1 | SruPH: L-pipecolic acid cis-5-hydroxylase from Segniliparus rugosus ATCC BAA-974, GenBank EFV12517, SEQ ID NO: 4 (protein, listed as Segniliparus rugosus) MKSYSLGKFEDRSIDSLIEEASGLPDSAYSSAYQEYSIGLWDTATLWNERGNESGEVSEHAAAAAPTAIGRSTPRLNEFVRAKFNVDVLRAVRLFRARQGAIIIPHRDYLEHSNGFCRIHLPLVTTPGARNSENNEVYRMLPGELWFLDSNEVHSGGVLDSGTRIHLVLDFTHEHNENPAAVLKNADRLRPIARDPRISRSKLDHEALESLIRGGRVVTLAMWPALVQMLARIHLTSDAHPAELYDWLDDLADRSGNDELVAEARRMRRYFLTDGISRTPSFERFWRELDAARKGELVS | small amount of hydroxy-L-proline was detected | Accumulation of (4S)-hydroxy-L-proline was confirmed | 1.8 | 22.5 | 0.1 | almost the entire amount of the substrate was allowed to convert to (5S)-hydroxy-L-pipecolic acid | 59 | small amount of hydroxy-L-proline was detected | 100 |  |  |  |  |  | 
2 | CgPH: L-pipecolic acid trans-4-hydroxylase from Colletotrichum gloeosporioides Nara qc5, GenBank ELA34460, SEQ ID NO: 12 (protein, Colletotrichum gloeosporioides) MSDKGATLDMSLFFGTPEEKGYFCTELLRLLKLRGGVKIQNHSIPDEDIHKLFDMSRKFFALPLETKMEAKHPPQANPNRGYSFIGQENVANISGYEKGLGPGKTRDIKETLDMGSAQDDLVDNLWIPEESLPGFRGFMESFYEKAFKTEMQLLSALAIALGVSEDHMKTLHNRAENEFRLLHYPAIPATELADGTATRIAEHTDFGTITMLFQDSVGGLQVEDQTQPGVFRSVESEKPTDIILNIGDSLQRLTNDTFRAACHRVTYPPAIKARDNVQIPERYSIAYFVKPNRHASLLPLKEFITDATPCRYEDVTAWEWNNRRITKLFG | no hydroxy-L-proline was detected |  |  |  |  |  |  |  |  | (No activity) | no accumulation of (4R)-hydroxy-L-proline was confirmed | 0 | 19.1 | 0.2 | a major amount of the substrate was allowed to convert to (4S)-hydroxy-L-pipecolic acid
3 | KjPH: amino acid hydroxylase from Kordia jejudonensis, GenBank WP_046758372, SEQ ID NO: 18 (protein, listed as Kordia jejudonensis) MESKIIGKVNFEEHLLDKELKLIDTFEFNDSYSEYASGIWKTCMLWNRSGQKDDHLSIEHDTYVKPTEYGKQLAYVNEIIANTFKKEHIKTVRLFMCINGLIIPHKDYLEFKKGFTRIHIPLKINEHALTSEEDVVYNMQKGEIWFIEGRKIHSAANFSKVKRINLVIDFAPDIPFEELFLNSENYQPNLIPKISQRTQLKEEELGYIKGLSKIINEMNFDDILSILSKIHFYRNVSSELVFGWLDEIATASNNYNIQRKAQEVTDLLIRKGPINN | small amount of hydroxy-L-proline was detected |  |  |  |  |  |  |  |  |  |  |  |  |  | 
4 | XdPH: L-proline cis-4-hydroxylase from Xenorhabdus doucetiae FRM16, GenBank CDG16639, SEQ ID NO: 8 (protein, listed as Xenorhabdus doucetiae) MMSAKLLASIELNQEQIEHDLNIVGSEILDVAYSEYACGNWGTITLWNHSGDAGDQTSREYVGQARPTELGQQLDCINQLIRNNFNISLIKSVRIFRSYNGGAIYPHIDYLEFNQGFKRVHLVLKSDRSCLNSEENTVYHMLPGEVWFVDGHSAHSAMSLSRVGKYSLVLDFDSGAKFEDLYSESHTLCVDNLEPDIIHDRQPLPTSLRDSLAHIAEHADEFNIQSILFLATRFHFSYAVSIREYFQLLDECFSRNPYKSVRERYEALKDILVRSGYTSHNVNHFNSLSGVTIG | small amount of hydroxy-L-proline was detected | Accumulation of (4S)-hydroxy-L-proline was confirmed | 0.3 | 15.2 | 10.6 |  | 37 | small amount of hydroxy-L-proline was detected | 100 |  |  |  |  |  | 
5 | PcPH: L-pipecolic acid trans-4-hydroxylase from Penicillium chrysogenum Wisconsin 54-1255, GenBank XP_002558179, SEQ ID NO: 14 (protein, listed as Penicillium chrysogenum) MSQALDLSLLKGSPEERDEVSAALLDTLKTRGVAKLKNHGLPEDLIAEMFDYTRRFFSLSLEDKMTAKHPPEANPNRGYSYVGQESVSSISGYEKGLPQGKTIRDIKETLDMGSPHDSLVDNIWVAEEKLPGFRKFMEDFYESCFKVELEILDALAQALEISAPDLRLLHNKAENEFRLLHYPAVPASALEDGTATRIAEHTDFGTITMLFQDSTGGLQVEDQTNLGTFHDVVSGGKSEIILNIGDSLQRLTNDTFMAACHRVTYPPTVKVGSDVVIPERYSVAYFAKPNRIASLFPLKKFITPATPCKYEDITAWDYNNLRIAKLFS | no hydroxy-L-proline was detected |  |  |  |  |  |  |  |  | (No activity) | no accumulation of (4R)-hydroxy-L-proline was confirmed | 0 | 17.4 | 2.1 | a major amount of the substrate was allowed to convert to (4S)-hydroxy-L-pipecolic acid
6 | SmPH: L-proline cis-4-hydroxylase from Sinorhizobium meliloti 1021, GenBank CAC47686, SEQ ID NO: 10 (protein, listed as Sinorhizobium meliloti) MSTHFLGKVKFDEARLAEDLSTLEVAEFSSAYSDFACGKWEACVLRNRTGMQEEDIVVSHNAPALATPLSKSLPYLNELVETHFDCSAVRYTRIVRVSENACIIPHSDYLELDETFTRLHLVLDTNSGCANTEEDKIFHMGLGEIWFLDAMLPHSAACFSKTPRLHLMIDFEATAFPESFLRNVEQPVTTRDMVDPRKELTDEVIEGILGFSIIISEANYREIVSILAKLHFFYKADCRSMYDWLKEICKRRGDPALIEKTASLERFFLGHRERGEVMTY | small amount of hydroxy-L-proline was detected | Accumulation of (4S)-hydroxy-L-proline was confirmed | 0.2 | 9.4 | 5.6 |  | 46 | small amount of hydroxy-L-proline was detected | 100 |  |  |  |  |  | 
